Results: patent US20160185837A1 (Medimmune Limited, priority 2013, published 2016)
Ends that are not written are not given here.

Assays:
cyno GCGr (cGCGr) = assay: cAMP assay, cells expressing cyno GCGr, 4.2% cyno serum albumin; format: cell-based, cynomolgus monkey; settings: culture medium containing 4.2% cyno serum albumin
Description: (§1) In certain aspects, the assay can also be carried out in medium supplemented with serum albumin that corresponds to the receptor being tested, e.g., human serum albumin for testing cAMP activity at hGIPr or hGLP-1r, rat serum albumin for testing cAMP activity at rGIPr or rGLP-1r, and so on. Low protein binding 384-well plates (Greiner #781280) were used to perform eleven 1 in 5 serial dilutions of test samples that were made in assay medium. All sample dilutions were made in duplicate.
A frozen cryo-vial of cells expressing the receptor of interest was thawed rapidly in a water-bath, transferred to pre-warmed assay media and spun at 240×g for 5 minutes. Cells were re-suspended in assay buffer at an optimized concentration (e.g., hGLP-1r and hGIPr cells at 0.5×10^5 cells/ml). […]
cAMP levels were measured using a commercially available cAMP dynamic 2 HTRF kit (Cisbio, Cat #62AM4PEJ), following the two step protocol as per manufacturer's recommendations. […] Plates were incubated at room temperature for one hour and then read on an Envision (Perkin Elmer) using excitation wavelength of 320 nm and emission wavelengths of 620 nm & 665 nm. Data was transformed to % Delta F as described in manufacturer's guidelines and then transformed to percent activation of maximal native agonist response and analysed by 4-parameter logistic fit to determine EC50 values.

cyno GLP-1r (cGLP-1r) = target: T1, cyno GLP-1r (cGLP-1r) (Macaca fascicularis, UniProt F8V479); assay: cAMP assay, cells expressing cyno GLP-1r, 4.2% cyno serum albumin; format: cell-based, cynomolgus monkey; settings: culture medium containing 4.2% cyno serum albumin; read-out: EC50 for cGLP-1r
T1 construct: expressed in transfected cells
T1 sequence (F8V479 24-463): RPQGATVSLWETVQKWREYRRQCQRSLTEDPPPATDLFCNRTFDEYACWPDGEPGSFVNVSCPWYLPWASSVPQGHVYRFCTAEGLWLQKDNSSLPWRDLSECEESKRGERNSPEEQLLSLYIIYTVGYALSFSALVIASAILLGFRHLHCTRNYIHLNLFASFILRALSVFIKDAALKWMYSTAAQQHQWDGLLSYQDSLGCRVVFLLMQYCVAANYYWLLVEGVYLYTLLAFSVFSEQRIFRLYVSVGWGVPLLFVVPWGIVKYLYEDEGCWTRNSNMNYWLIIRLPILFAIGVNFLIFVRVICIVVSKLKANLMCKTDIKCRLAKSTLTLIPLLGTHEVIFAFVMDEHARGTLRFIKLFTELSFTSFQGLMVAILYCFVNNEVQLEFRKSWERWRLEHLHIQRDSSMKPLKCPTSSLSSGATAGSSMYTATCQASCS
Description: as §1, with “Low protein binding 384-well plates (Greiner #781280) were used to perform eleven 1 in 5 serial dilutions of test samples that were made in assay medium.” left out
A frozen cryo-vial of cells expressing the receptor of interest was thawed rapidly in a water-bath, transferred to pre-warmed assay media and spun at 240×g for 5 minutes. Cells were re-suspended in assay buffer at an optimized concentration (e.g., hGLP-1r and hGIPr cells at 0.5×10^5 cells/ml).
To this, 5 μL cell suspension was added and the plates incubated at room temperature for 30 minutes.
cAMP levels were measured using a commercially available cAMP dynamic 2 HTRF kit (Cisbio, Cat #62AM4PEJ), following the two step protocol as per manufacturer's recommendations. In brief; anti-cAMP cryptate (donor fluorophore) and cAMP-d2 (acceptor fluorophore) were made up separately by diluting each 1/20 in conjugate & lysis buffer provided in the kit. […] Data was transformed to % Delta F as described in manufacturer's guidelines and then transformed to percent activation of maximal native agonist response and analysed by 4-parameter logistic fit to determine EC50 values.

[1] = Extended pharmacokinetics, serum ELISA for protein (Fc) detection; format: in vivo, CD male rats; settings: 1 mg/kg subcutaneously or intravenously, serum out to 168 hours
Description: More extended pharmacokinetic assays to determine protein stability and activity were performed as follows. CD male rats (n=3) were injected subcutaneously or intravenously with 1 mg/kg IP088 or GLP1a-Fc. Periodic serum samples were obtained out to 168 hours. The serum samples were subjected to ELISA for protein (Fc) detection by the following method. ELISA plates (Costar 3690) were coated with Mouse anti-human IgG (JCD-10) 1/500 in PBS (final concentration 1 μg/ml). […] was added to each well and the plates were incubated overnight at 4° C. Following washing with PBS-Tween (PBS-T), the plates were blocked with […] 1% BSA in PBS for 1 h at RT with gentle shaking. Following washing with PBS-T, standards, and dilutions of […] samples were added (50 μl/well), and the plate was incubated for 2 h at RT with gentle shaking. Following washing […] biotinylated mouse anti-human IgG (JCD-10) diluted 1/1000 in ELISA incubation buffer (final concentration 0.5 μg/ml) was added to each well and the plates were incubated for 1 h at RT with gentle shaking. Following washing […] of Streptavidin-HRP diluted 1/1000 in ELISA incubation buffer was added to each well, and the plates were incubated for 45 min at RT with gentle shaking. […]

EC50 (cyno GCGr (cGCGr)): > 1000 nM | EC50 (cyno GLP-1r (cGLP-1r)): 0.011 nM
Substance: GLP1a-Fc: GLP-1 analogue-Fc (gamma4) fusion control; GLP-1 agonist; Peptide SEQ ID NO:62-Fc, SEQ ID NO:189 (HGEGTFTSDVSSYLEEQAAKEFIAWLVKGR; also: Fc (gamma4) fusion)
PK profile by Fc ELISA (Cmax, bioavailability, half-life), in words [1]: equivalent PK profiles
